Data on 1 protein can be found in patent US20120302734A1 (COMMONWEALTH SCIENTIFIC AND INDUSTRIAL RESEARCH ORGANISATION, published 2012).

This data set concerns the molecule itself. Nature of the data set: dynamic light scattering after SDS removal, against 9.2 nm for the monomeric SDS-protein solution; self-association. As to the method: The AmelF3 honeybee silk protein was expressed into the inclusion bodies of E. coli. AmelF3 inclusion bodies were unfolded using equivalent dry weight of the detergent sodium dodecyl sulphate (SDS) to generate 2-4% monomeric protein solutions. Dynamic light scattering (DLS) measured the hydrodynamic diameter of particles in the protein-detergent solution diluted ten-fold in 100 mM NaCl as 9.2+/−0.1 nm (peak containing 98.2% of particle volume). The diameter of SDS micelles in 3% SDS solutions without protein under the same experimental conditions was a single peak at 5.5+/−0.2 nm. No SDS micelles were detected in the SDS—protein solutions confirming that the majority of the SDS was bound to the protein.
Proteins were refolded by removing SDS using KCl. […] The protein solutions were dialysed against water to reduce salt levels then concentrated by dialysis against PEG8000, resulting in 3-4% protein and 0.2-0.4% SDS concentration.

B1: Honeybee silk protein Xenospira3 (AmelF3), recombinant, without signal peptide (other)
chain: GVEEFKSSATEEVISKNLEVDLLKNVDTSAKRRENGAPVLGKNTLQSLEKIKTSASVNAKAAAVVKASALALAEAYLRASALSAAASAKAAAALKNAQQAQLNAQEKSLAALKAQSEEEAASARANAATAATQSALERAQASSRLATVAQNVASDLQKRTSTKAAAEAAATLRQLQDAERTKWSANAALEVSAAAAAAETKTTASSEAANAAAKKAAAIASDADGAERSASTEAQSAAKIESVAAAEGSANSASEDSRAAQLEASTAARANVAAAVGDGAIIGLGEEAGAAAQLLAQAKALAEVSSKSENIEDKKF
notes: The cloning primer may add an N-terminal Met
On to B1, for which the binding result is listed as “binds”.
